Assay [1] deals with T1, human TF ECD-His6 (human, UniProt P13726 33-251).
T1 construct: made in Expi293 cells; the entry holds the ECD with the C-terminal TG-His6; also called TF-His; hTF
The assay can be described thus: BLI (ForteBio Octet). (In general: In BLI a coated tip is dipped into the sample, and binding shifts an interference pattern.)

For another assay, the target named is T2, mouse TF ECD-His6 (mouse, UniProt P20352 29-251).
T2 construct: made in Expi293 cells; also called TF-His; mTF
The experiment in a line: BLI (ForteBio Octet).

The target of assay [2] is T1, human TF ECD-His6. The assay can be described thus: SPR (Biacore), antibody on chip, TF-His titrated.
Assay [3] concerns the target T3, cynomolgus TF ECD-His6 (cynomolgus monkey (Macaca fascicularis)).
T3 construct: made in Expi293 cells; also called TF-His; cTF
T3 chain: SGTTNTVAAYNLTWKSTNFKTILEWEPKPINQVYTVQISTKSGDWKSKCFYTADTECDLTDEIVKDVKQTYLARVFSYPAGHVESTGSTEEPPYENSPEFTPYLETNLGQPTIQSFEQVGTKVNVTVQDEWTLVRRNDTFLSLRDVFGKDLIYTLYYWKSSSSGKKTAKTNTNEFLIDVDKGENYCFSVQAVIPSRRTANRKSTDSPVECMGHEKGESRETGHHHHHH
The experiment in a line: SPR (Biacore), antibody on chip, TF-His titrated.

Assay [4] has as its target T3, cynomolgus TF ECD-His6. The assay can be described thus: BLI (ForteBio Octet).
The next assay deals with relipidated TF (UniProt P13726 33-295, limits assumed). The experiment in a line: cell-based or functional assay.

A word on the Kd: it is a measure of binding affinity in units of concentration.

B1: 25A5 (antibody, human IgG1, kappa, V domains shown)
VH: QVQLVQSGAEVKKPGASVKVSCKASGYTFDVYGISWVRQAPGQGLEWMGWIAPYSGNTNYAQKLQGRVTMTTDTSTSTAYMELRSLRSDDTAVYYCARDAGTYSPFGYGMDVWGQGTTVTVSS
VL: DIQMTQSPSTLSASVGDRVTITCRASESISNWLAWYQQKPGKAPKLLIYKAYSLEYGVPSRFSGSGSGTEFTLTISSLQPDDFATYYCQQFQKLPPFTFGGGTKVEIKR
notes: human IgG1
Take B1: the Kd with human TF ECD-His6 [1] was determined as 0.64 nM; with mouse TF ECD-His6, 188 nM; with human TF ECD-His6 [2], 0.08 nM; in the assay with cynomolgus TF ECD-His6 [3], 0.04 nM.

B2: 25G (antibody, human IgG1, kappa, V domains shown)
VH: QVQLVQSGAEVKKPGASVKVSCKASGYTFRSYGISWVRQAPGQGLEWMGWVAPYNGNTNYAQKLQGRVTMTTDTSTSTAYMELRSLRSDDTAVYYCARDAGTYSPYGYGMDVWGQGTTVTVSS
VL: DIQMTQSPSTLSASVGDRVTITCRASQSISSWLAWYQQKPGKAPKLLIYKASSLESGVPSRFSGSGSGTEFTLTISSLQPDDFATYYCQQFQSLPPFTFGGGTKVEIKR
notes: human IgG1
As for B2, the Kd stood at 21.9 nM in the assay with human TF ECD-His6 [1]; 17.5 nM in the assay with cynomolgus TF ECD-His6 [4]; 114 nM with mouse TF ECD-His6; 23 nM with human TF ECD-His6 [2]; 18 nM with cynomolgus TF ECD-His6 [3].

B3: 43B1 (antibody, human IgG1, V domains shown)
VH: QVQLQESGPGLVKPSQTLSLTCTVSGGSISSGQYWSWIRQHPGKGLEWIGEIYYSGSTRYNPSLKSRVTISVDTSKNQFSLKLSSVTAADTAVYYCARDAPYYYGGGYYYYMDVWGKGTTVTVSS
VL: EIVLTQSPGTLSLSPGERATLSCRASESVDSSYLAWYQQKPGQAPRLLIYGASTRQTGIPDRFSGSGSGTDFTLTISRLEPEDFAVYYCQQAGVVPYTFGGGTKVEIK
notes: human IgG1
For the molecule B3, the Kd in the assay with mouse TF ECD-His6 came out at 72.1 nM. Also, in the assay with relipidated TF, the “TGA without pre-incubation, 10 nM Ab: % Peak IIa” value is 87%; the “TGA without pre-incubation, 10 nM Ab: ETP” value is 2290 nM·min; the “TGA without pre-incubation, 10 nM Ab: Lag Time” value was determined as 4.9 min; the “TGA without pre-incubation, 10 nM Ab: Peak IIa” value was found to be 299 nM. Besides, in the assay with relipidated TF, the “TGA without pre-incubation, 10 nM Ab: ttPeak” value was determined as 8.9 min; the “TGA without pre-incubation, 50 nM Ab: ETP” value came to 2200 nM·min; the “TGA without pre-incubation, 50 nM Ab: Lag Time” value was determined as 5.2 min; the “TGA without pre-incubation, 50 nM Ab: Peak IIa” value amounted to 232 nM. In the assay with relipidated TF, the “TGA without pre-incubation, 100 nM Ab: ETP” value came to 2170 nM·min; the “TGA without pre-incubation, 100 nM Ab: Lag Time” value came out at 5.2 min; the “TGA without pre-incubation, 100 nM Ab: Peak IIa” value was 221 nM.

B4: 43B (antibody, human IgG1, V domains shown)
VH: QVQLQESGPGLVKPSQTLSLTCTVSGGSISSGQYWSWIRQHPGKGLEWIGEIYYSGSTRYNPSLKSRVTISVDTSKNQFSLKLSSVTAADTAVYYCARDAPYYYGGGYYYYMDVWGKGTTVTVSS
VL: EIVLTQSPGTLSLSPGERATLSCRASQSVSSSYLAWYQQKPGQAPRLLIYGASSRATGIPDRFSGSGSGTDFTLTISRLEPEDFAVYYCQQVGVVPYTFGGGTKVEIK
notes: human IgG1
Regarding B4, the Kd with human TF ECD-His6 [1] was 2.4 nM; with cynomolgus TF ECD-His6 [4], 3.4 nM; in the assay with mouse TF ECD-His6 it was 161 nM; with human TF ECD-His6 [2], 1.75 nM; with cynomolgus TF ECD-His6 [3], 5.64 nM.

B5: 43B7 (antibody, human IgG1, V domains shown)
VH: QVQLQESGPGLVKPSQTLSLTCTVSGGSISSGQYWSWIRQHPGKGLEWIGEIYYSGSTRYNPSLKSRVTISVDTSKNQFSLKLSSVTAADTAVYYCARDAPYYYGGGYYYYMDVWGKGTTVTVSS
VL: EIVLTQSPGTLSLSPGERATLSCRASESVDSSYLAWYQQKPGQAPRLLIYGADSRATGIPDRFSGSGSGTDFTLTISRLEPEDFAVYYCQQDGVVPYTFGGGTKVEIK
notes: human IgG1
With B5, the Kd with human TF ECD-His6 [1] was determined as 0.86 nM; in the assay with cynomolgus TF ECD-His6 [4], 0.94 nM; in the assay with mouse TF ECD-His6 it was 360 nM; in the assay with human TF ECD-His6 [2], 0.14 nM; with cynomolgus TF ECD-His6 [3], 0.24 nM.

(Values after US20240166765A1 (ICONIC THERAPEUTICS, published 2024).)
